We go through 14 molecules from PMC314469, “Protein Interaction Networks by Proteome Peptide Scanning” (PLoS Biology, 2004).

Holding throughout (assay): SPOT array
The target in experiment [1] is T1, Boi1 SH3 (BOI1_YEAST), P38041.
T1 chain: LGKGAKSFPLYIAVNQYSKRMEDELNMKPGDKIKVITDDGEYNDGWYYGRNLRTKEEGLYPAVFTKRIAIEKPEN

In experiment [2] the target is Sho1 SH3 (SHO1_YEAST), P40073.
The target in experiment [3] is T2, Yhr016c SH3 (YSC84_YEAST), P32793.
T2 chain: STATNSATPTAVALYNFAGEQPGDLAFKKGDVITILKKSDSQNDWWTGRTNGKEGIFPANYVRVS

The target in experiment [4] is T3, Myo5 SH3 (MYO5_YEAST), Q04439.
T3 chain: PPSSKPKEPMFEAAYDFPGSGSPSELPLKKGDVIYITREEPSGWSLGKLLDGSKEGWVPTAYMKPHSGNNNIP

The target of experiment [5] is T4, Boi2 SH3 (BOI2_YEAST), P39969.
T4 chain: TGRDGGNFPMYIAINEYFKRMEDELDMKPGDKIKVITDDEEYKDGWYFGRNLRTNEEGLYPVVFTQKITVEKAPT

The target in experiment [6] is T5, Yfr024 SH3 (LSB3_YEAST), P43603.
T5 chain: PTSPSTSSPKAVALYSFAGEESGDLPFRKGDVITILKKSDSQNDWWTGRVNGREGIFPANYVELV

The target in experiment [7] is T6, Rvs167 SH3 (RV167_YEAST), P39743.
T6 chain: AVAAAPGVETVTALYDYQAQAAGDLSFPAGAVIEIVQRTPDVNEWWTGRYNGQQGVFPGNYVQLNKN

Sequence of Sho1 SH3 (SHO1_YEAST), P40073 (P40073 295-366): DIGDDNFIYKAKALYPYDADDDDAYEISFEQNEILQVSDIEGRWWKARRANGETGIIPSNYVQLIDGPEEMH

Take TVSDRLIPTSPQKT [YGR146C 10-23]: the normalised SPOT signal, Boehringer light units (BLU); mean over the file's lines of this peptide in experiment [1] is 50; in experiment [2] it was 60.1; in experiment [3], 13; in experiment [4] it was 128; in experiment [5], 31.8; in experiment [6] it was 76.1. Besides, the normalised SPOT signal, Boehringer light units (BLU); mean over the file's lines of this peptide in experiment [7] was determined as 143.
In the case of VEKRKFTPIEPSLL [YPL242C 332-345], the normalised SPOT signal, Boehringer light units (BLU); mean over the file's lines of this peptide in experiment [1] came to 594; in experiment [2], 35.6; in experiment [3] it was 71.2; in experiment [4], 171; in experiment [5], 77.3; in experiment [6], 179. This molecule also displayed a normalised SPOT signal, Boehringer light units (BLU); mean over the file's lines of this peptide in experiment [7] of 222.
TTTIKNRPVPPPLP [YPL140C 79-92]: the normalised SPOT signal, Boehringer light units (BLU); mean over the file's lines of this peptide was 86.4 in experiment [1]; 50.1 in experiment [2]; 32.8 in experiment [3]; 1870 in experiment [4]; 0 in experiment [5]; 290 in experiment [6]. This molecule came in with a normalised SPOT signal, Boehringer light units (BLU); mean over the file's lines of this peptide in experiment [7] of 598.
Consider VDSFKYEPLAPGND [YLR335W 665-678], for which the normalised SPOT signal, Boehringer light units (BLU); mean over the file's lines of this peptide in experiment [1] amounted to 0; in experiment [2], 22.1; in experiment [3], 15.2; in experiment [4], 134; in experiment [5], 13.5; in experiment [6], 0. Besides, the normalised SPOT signal, Boehringer light units (BLU); mean over the file's lines of this peptide in experiment [7] was found to be 35.2.
On to TTRRKKDPNAPKRR [YBR089C-A 17-30], for which the normalised SPOT signal, Boehringer light units (BLU); mean over the file's lines of this peptide in experiment [1] was 424; in experiment [2] it was 106; in experiment [3] it was 19.6; in experiment [4], 999; in experiment [5], 13; in experiment [6], 341. In addition, the normalised SPOT signal, Boehringer light units (BLU); mean over the file's lines of this peptide in experiment [7] was determined as 141.
For VSTIRSTPSQPIHS [YDR390C 176-189], the normalised SPOT signal, Boehringer light units (BLU); mean over the file's lines of this peptide in experiment [1] worked out at 93.9; in experiment [2], 59.8; in experiment [3], 37.4; in experiment [4], 245; in experiment [5], 39.1; in experiment [6], 177. In experiment [7], this molecule had a normalised SPOT signal, Boehringer light units (BLU); mean over the file's lines of this peptide of 68.8.
As to TTRKKKDPNAPKRA [YPR052C 11-24], the normalised SPOT signal, Boehringer light units (BLU); mean over the file's lines of this peptide in experiment [1] is 416; in experiment [2] it was 108; in experiment [3], 54; in experiment [4], 275; in experiment [5], 40.3; in experiment [6], 388. The normalised SPOT signal, Boehringer light units (BLU); mean over the file's lines of this peptide in experiment [7] came out at 78.7.
Turning to TYLTRPLPSTPNED [YOL070C 348-361], the normalised SPOT signal, Boehringer light units (BLU); mean over the file's lines of this peptide was 193 in experiment [1]; 14200 in experiment [2]; 47100 in experiment [3]; 101 in experiment [4]; -0 in experiment [5]; 20100 in experiment [6]. The same molecule showed a normalised SPOT signal, Boehringer light units (BLU); mean over the file's lines of this peptide in experiment [7] of 11900.
As for TTTYKSRPDRPKPV [YBR289W 757-770], the normalised SPOT signal, Boehringer light units (BLU); mean over the file's lines of this peptide in experiment [1] amounted to 607; in experiment [2], 44.7; in experiment [3] it was 68.7; in experiment [4], 309; in experiment [5] it was 23.7; in experiment [6], 266. Also, the normalised SPOT signal, Boehringer light units (BLU); mean over the file's lines of this peptide in experiment [7] came to 97.7.
For the molecule TVRTRRRPPPPPIP [YNL094W 462-475], the normalised SPOT signal, Boehringer light units (BLU); mean over the file's lines of this peptide in experiment [1] is 3490; in experiment [2], 95.5; in experiment [3], 91.7; in experiment [4], 46200; in experiment [5], 12.6; in experiment [6], 891. Further, the normalised SPOT signal, Boehringer light units (BLU); mean over the file's lines of this peptide in experiment [7] is 663.
Turning to VAPNRIPPKVPVIN [YDR466W 429-442], the normalised SPOT signal, Boehringer light units (BLU); mean over the file's lines of this peptide in experiment [1] amounted to 103; in experiment [2] it was 19.2; in experiment [3] it was 17.7; in experiment [4], 61100; in experiment [5], 25; in experiment [6], 213. This molecule showed a normalised SPOT signal, Boehringer light units (BLU); mean over the file's lines of this peptide in experiment [7] of 55.9.
In the case of VSHSKYIPLKPIQD [YGL017W 314-327], the normalised SPOT signal, Boehringer light units (BLU); mean over the file's lines of this peptide is 138 in experiment [1]; 25.4 in experiment [2]; 25.7 in experiment [3]; 298 in experiment [4]; 29.9 in experiment [5]; 34.8 in experiment [6]. This molecule also had a normalised SPOT signal, Boehringer light units (BLU); mean over the file's lines of this peptide in experiment [7] of 6.3.
For TYIWRYLPAPPVSI [YOR116C 255-268], the normalised SPOT signal, Boehringer light units (BLU); mean over the file's lines of this peptide in experiment [1] was 64.5; in experiment [2], 657; in experiment [3] it was 173; in experiment [4], 444; in experiment [5] it was 23.6; in experiment [6] it was 522. The same molecule yielded a normalised SPOT signal, Boehringer light units (BLU); mean over the file's lines of this peptide in experiment [7] of 356.
For the molecule TYGFRVRPDFPVFG [YMR295C 130-143], the normalised SPOT signal, Boehringer light units (BLU); mean over the file's lines of this peptide came to 12200 in experiment [1]; 71.3 in experiment [2]; 134 in experiment [3]; 357 in experiment [4]; 69.1 in experiment [5]; 892 in experiment [6]. The same molecule returned a normalised SPOT signal, Boehringer light units (BLU); mean over the file's lines of this peptide in experiment [7] of 361.
